Measurements from US20260015399A1 (Boehringer Ingelheim, published 2026).
*1 amine or outer side, *2 acyl side, *3 side chain or, on linkers, in order; H or OH if unused. Side-chain parts run from the residue outwards. The star is where a group is joined. C18 diacid = O=C(O)CCCCCCCCCCCCCCCCC(=O)*; γGlu = O=C(O)[C@H](CCC(=O)[*:2])N[*:1]; Isovaleryl = CC(C)CC(=O)*; Ahx = NCCCCCC(=O)O

Key:
[1] = molecular target: T1, human NPY5 receptor (human, UniProt Q15761 1-445); assay: cell-based or functional assay
T1 sequence (looked up): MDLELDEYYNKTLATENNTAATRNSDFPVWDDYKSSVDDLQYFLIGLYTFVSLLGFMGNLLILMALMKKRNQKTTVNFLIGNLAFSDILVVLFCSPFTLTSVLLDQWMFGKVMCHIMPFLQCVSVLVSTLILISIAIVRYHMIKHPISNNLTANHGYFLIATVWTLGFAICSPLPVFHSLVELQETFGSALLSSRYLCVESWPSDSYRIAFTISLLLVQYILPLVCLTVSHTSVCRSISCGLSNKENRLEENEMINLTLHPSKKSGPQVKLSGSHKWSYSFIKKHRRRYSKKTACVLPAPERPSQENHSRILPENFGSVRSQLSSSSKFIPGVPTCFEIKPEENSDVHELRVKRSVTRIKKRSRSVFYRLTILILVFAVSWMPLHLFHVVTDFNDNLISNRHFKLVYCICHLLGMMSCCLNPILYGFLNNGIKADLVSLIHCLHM

[2] = molecular target: T2, human NPY2 receptor (human, UniProt P49146 1-381); assay: cell-based or functional assay
T2 sequence (looked up): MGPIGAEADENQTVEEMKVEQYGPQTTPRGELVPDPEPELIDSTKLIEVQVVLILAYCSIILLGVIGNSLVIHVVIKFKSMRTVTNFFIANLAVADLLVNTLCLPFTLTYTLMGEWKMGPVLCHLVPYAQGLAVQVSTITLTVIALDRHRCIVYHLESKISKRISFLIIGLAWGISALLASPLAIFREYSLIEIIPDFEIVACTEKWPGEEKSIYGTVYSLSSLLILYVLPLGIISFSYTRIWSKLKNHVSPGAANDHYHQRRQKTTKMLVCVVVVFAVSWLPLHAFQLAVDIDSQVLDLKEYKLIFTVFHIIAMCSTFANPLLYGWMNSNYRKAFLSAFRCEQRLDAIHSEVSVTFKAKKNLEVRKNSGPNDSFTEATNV

[3] = molecular target: T2, human NPY2 receptor; assay: RLB: displacement of 125I-PYY(1-36) from hNPY2R membranes

B1: Compound 16 (peptide)
peptide: Isovaleryl-APEK([Ahx-γGlu-C18 diacid])PEEDATPEELQKYYVSLRHYYNWLTRQRY-NH2
SMILES: CC(C)CC(=O)N[C@@H](C)C(=O)N1CCC[C@H]1C(=O)N[C@@H](CCC(=O)O)C(=O)N[C@@H](CCCCNC(=O)CCCCCNC(=O)CC[C@H](NC(=O)CCCCCCCCCCCCCCCCC(=O)O)C(=O)O)C(=O)N1CCC[C@H]1C(=O)N[C@@H](CCC(=O)O)C(=O)N[C@@H](CCC(=O)O)C(=O)N[C@@H](CC(=O)O)C(=O)N[C@@H](C)C(=O)N[C@H](C(=O)N1CCC[C@H]1C(=O)N[C@@H](CCC(=O)O)C(=O)N[C@@H](CCC(=O)O)C(=O)N[C@@H](CC(C)C)C(=O)N[C@@H](CCC(N)=O)C(=O)N[C@@H](CCCCN)C(=O)N[C@@H](Cc1ccc(O)cc1)C(=O)N[C@@H](Cc1ccc(O)cc1)C(=O)N[C@H](C(=O)N[C@@H](CO)C(=O)N[C@@H](CC(C)C)C(=O)N[C@@H](CCCNC(=N)N)C(=O)N[C@@H](Cc1c[nH]cn1)C(=O)N[C@@H](Cc1ccc(O)cc1)C(=O)N[C@@H](Cc1ccc(O)cc1)C(=O)N[C@@H](CC(N)=O)C(=O)N[C@@H](Cc1c[nH]c2ccccc12)C(=O)N[C@@H](CC(C)C)C(=O)N[C@H](C(=O)N[C@@H](CCCNC(=N)N)C(=O)N[C@@H](CCC(N)=O)C(=O)N[C@@H](CCCNC(=N)N)C(=O)N[C@@H](Cc1ccc(O)cc1)C(N)=O)[C@@H](C)O)C(C)C)[C@@H](C)O
With B1 the “EC50, HTRF cAMP Gi assay” value [1] was greater than 5000 nM, the “EC50, HTRF cAMP Gi assay” value [2] was 0.31 nM and the Ki [3] was 2.81 nM.

B2: Compound 23 (peptide)
peptide: Isovaleryl-APEK([Ahx-γGlu-C18 diacid])PEEEASPEELQRYYVSLRHYYNWLTRQRY-NH2
SMILES: CC(C)CC(=O)N[C@@H](C)C(=O)N1CCC[C@H]1C(=O)N[C@@H](CCC(=O)O)C(=O)N[C@@H](CCCCNC(=O)CCCCCNC(=O)CC[C@H](NC(=O)CCCCCCCCCCCCCCCCC(=O)O)C(=O)O)C(=O)N1CCC[C@H]1C(=O)N[C@@H](CCC(=O)O)C(=O)N[C@@H](CCC(=O)O)C(=O)N[C@@H](CCC(=O)O)C(=O)N[C@@H](C)C(=O)N[C@@H](CO)C(=O)N1CCC[C@H]1C(=O)N[C@@H](CCC(=O)O)C(=O)N[C@@H](CCC(=O)O)C(=O)N[C@@H](CC(C)C)C(=O)N[C@@H](CCC(N)=O)C(=O)N[C@@H](CCCNC(=N)N)C(=O)N[C@@H](Cc1ccc(O)cc1)C(=O)N[C@@H](Cc1ccc(O)cc1)C(=O)N[C@H](C(=O)N[C@@H](CO)C(=O)N[C@@H](CC(C)C)C(=O)N[C@@H](CCCNC(=N)N)C(=O)N[C@@H](Cc1c[nH]cn1)C(=O)N[C@@H](Cc1ccc(O)cc1)C(=O)N[C@@H](Cc1ccc(O)cc1)C(=O)N[C@@H](CC(N)=O)C(=O)N[C@@H](Cc1c[nH]c2ccccc12)C(=O)N[C@@H](CC(C)C)C(=O)N[C@H](C(=O)N[C@@H](CCCNC(=N)N)C(=O)N[C@@H](CCC(N)=O)C(=O)N[C@@H](CCCNC(=N)N)C(=O)N[C@@H](Cc1ccc(O)cc1)C(N)=O)[C@@H](C)O)C(C)C
In the case of B2, the “EC50, HTRF cAMP Gi assay” value [1] is reported as greater than 5000 nM, the “EC50, HTRF cAMP Gi assay” value [2] is reported as 0.181 nM and the Ki [3] is reported as 12.6 nM.

B3: Compound 26 (peptide)
peptide: Isovaleryl-APAK([Ahx-γGlu-C18 diacid])PEEDATPEELQRYYVSLRHYYNWLTRQRY-NH2
SMILES: CC(C)CC(=O)N[C@@H](C)C(=O)N1CCC[C@H]1C(=O)N[C@@H](C)C(=O)N[C@@H](CCCCNC(=O)CCCCCNC(=O)CC[C@H](NC(=O)CCCCCCCCCCCCCCCCC(=O)O)C(=O)O)C(=O)N1CCC[C@H]1C(=O)N[C@@H](CCC(=O)O)C(=O)N[C@@H](CCC(=O)O)C(=O)N[C@@H](CC(=O)O)C(=O)N[C@@H](C)C(=O)N[C@H](C(=O)N1CCC[C@H]1C(=O)N[C@@H](CCC(=O)O)C(=O)N[C@@H](CCC(=O)O)C(=O)N[C@@H](CC(C)C)C(=O)N[C@@H](CCC(N)=O)C(=O)N[C@@H](CCCNC(=N)N)C(=O)N[C@@H](Cc1ccc(O)cc1)C(=O)N[C@@H](Cc1ccc(O)cc1)C(=O)N[C@H](C(=O)N[C@@H](CO)C(=O)N[C@@H](CC(C)C)C(=O)N[C@@H](CCCNC(=N)N)C(=O)N[C@@H](Cc1c[nH]cn1)C(=O)N[C@@H](Cc1ccc(O)cc1)C(=O)N[C@@H](Cc1ccc(O)cc1)C(=O)N[C@@H](CC(N)=O)C(=O)N[C@@H](Cc1c[nH]c2ccccc12)C(=O)N[C@@H](CC(C)C)C(=O)N[C@H](C(=O)N[C@@H](CCCNC(=N)N)C(=O)N[C@@H](CCC(N)=O)C(=O)N[C@@H](CCCNC(=N)N)C(=O)N[C@@H](Cc1ccc(O)cc1)C(N)=O)[C@@H](C)O)C(C)C)[C@@H](C)O
B3 was tested, and the “EC50, HTRF cAMP Gi assay” value [1] was greater than 5000 nM, the “EC50, HTRF cAMP Gi assay” value [2] was 0.108 nM and the Ki [3] was 5.64 nM.

B4: Compound 52 (peptide)
peptide: Isovaleryl-APEK([Ahx-γGlu-C18 diacid])PEEDASPEEIQRYYVELRHYYNWLTRQRY-NH2
SMILES: CC[C@H](C)[C@H](NC(=O)[C@H](CCC(=O)O)NC(=O)[C@H](CCC(=O)O)NC(=O)[C@@H]1CCCN1C(=O)[C@H](CO)NC(=O)[C@H](C)NC(=O)[C@H](CC(=O)O)NC(=O)[C@H](CCC(=O)O)NC(=O)[C@H](CCC(=O)O)NC(=O)[C@@H]1CCCN1C(=O)[C@H](CCCCNC(=O)CCCCCNC(=O)CC[C@H](NC(=O)CCCCCCCCCCCCCCCCC(=O)O)C(=O)O)NC(=O)[C@H](CCC(=O)O)NC(=O)[C@@H]1CCCN1C(=O)[C@H](C)NC(=O)CC(C)C)C(=O)N[C@@H](CCC(N)=O)C(=O)N[C@@H](CCCNC(=N)N)C(=O)N[C@@H](Cc1ccc(O)cc1)C(=O)N[C@@H](Cc1ccc(O)cc1)C(=O)N[C@H](C(=O)N[C@@H](CCC(=O)O)C(=O)N[C@@H](CC(C)C)C(=O)N[C@@H](CCCNC(=N)N)C(=O)N[C@@H](Cc1c[nH]cn1)C(=O)N[C@@H](Cc1ccc(O)cc1)C(=O)N[C@@H](Cc1ccc(O)cc1)C(=O)N[C@@H](CC(N)=O)C(=O)N[C@@H](Cc1c[nH]c2ccccc12)C(=O)N[C@@H](CC(C)C)C(=O)N[C@H](C(=O)N[C@@H](CCCNC(=N)N)C(=O)N[C@@H](CCC(N)=O)C(=O)N[C@@H](CCCNC(=N)N)C(=O)N[C@@H](Cc1ccc(O)cc1)C(N)=O)[C@@H](C)O)C(C)C
B4 was tested, and the “EC50, HTRF cAMP Gi assay” value [1] was greater than 5000 nM, the “EC50, HTRF cAMP Gi assay” value [2] was 0.176 nM and the Ki [3] was 2.39 nM.

B5: Compound 72 (peptide)
peptide: Isovaleryl-APEK([Ahx-γGlu-C18 diacid])PEADAEPEELQRYYVSLRHYYNWLTRQRY-NH2
SMILES: CC(C)CC(=O)N[C@@H](C)C(=O)N1CCC[C@H]1C(=O)N[C@@H](CCC(=O)O)C(=O)N[C@@H](CCCCNC(=O)CCCCCNC(=O)CC[C@H](NC(=O)CCCCCCCCCCCCCCCCC(=O)O)C(=O)O)C(=O)N1CCC[C@H]1C(=O)N[C@@H](CCC(=O)O)C(=O)N[C@@H](C)C(=O)N[C@@H](CC(=O)O)C(=O)N[C@@H](C)C(=O)N[C@@H](CCC(=O)O)C(=O)N1CCC[C@H]1C(=O)N[C@@H](CCC(=O)O)C(=O)N[C@@H](CCC(=O)O)C(=O)N[C@@H](CC(C)C)C(=O)N[C@@H](CCC(N)=O)C(=O)N[C@@H](CCCNC(=N)N)C(=O)N[C@@H](Cc1ccc(O)cc1)C(=O)N[C@@H](Cc1ccc(O)cc1)C(=O)N[C@H](C(=O)N[C@@H](CO)C(=O)N[C@@H](CC(C)C)C(=O)N[C@@H](CCCNC(=N)N)C(=O)N[C@@H](Cc1c[nH]cn1)C(=O)N[C@@H](Cc1ccc(O)cc1)C(=O)N[C@@H](Cc1ccc(O)cc1)C(=O)N[C@@H](CC(N)=O)C(=O)N[C@@H](Cc1c[nH]c2ccccc12)C(=O)N[C@@H](CC(C)C)C(=O)N[C@H](C(=O)N[C@@H](CCCNC(=N)N)C(=O)N[C@@H](CCC(N)=O)C(=O)N[C@@H](CCCNC(=N)N)C(=O)N[C@@H](Cc1ccc(O)cc1)C(N)=O)[C@@H](C)O)C(C)C
With B5 the “EC50, HTRF cAMP Gi assay” value [1] was greater than 5000 nM, the “EC50, HTRF cAMP Gi assay” value [2] was 0.197 nM and the Ki [3] was 2.79 nM.

B6: Compound 76 (peptide)
peptide: Isovaleryl-APEK([Ahx-γGlu-C18 diacid])PEEDASPEELQRYYISLRHYYNWLTRQRY-NH2
SMILES: CC[C@H](C)[C@H](NC(=O)[C@H](Cc1ccc(O)cc1)NC(=O)[C@H](Cc1ccc(O)cc1)NC(=O)[C@H](CCCNC(=N)N)NC(=O)[C@H](CCC(N)=O)NC(=O)[C@H](CC(C)C)NC(=O)[C@H](CCC(=O)O)NC(=O)[C@H](CCC(=O)O)NC(=O)[C@@H]1CCCN1C(=O)[C@H](CO)NC(=O)[C@H](C)NC(=O)[C@H](CC(=O)O)NC(=O)[C@H](CCC(=O)O)NC(=O)[C@H](CCC(=O)O)NC(=O)[C@@H]1CCCN1C(=O)[C@H](CCCCNC(=O)CCCCCNC(=O)CC[C@H](NC(=O)CCCCCCCCCCCCCCCCC(=O)O)C(=O)O)NC(=O)[C@H](CCC(=O)O)NC(=O)[C@@H]1CCCN1C(=O)[C@H](C)NC(=O)CC(C)C)C(=O)N[C@@H](CO)C(=O)N[C@@H](CC(C)C)C(=O)N[C@@H](CCCNC(=N)N)C(=O)N[C@@H](Cc1c[nH]cn1)C(=O)N[C@@H](Cc1ccc(O)cc1)C(=O)N[C@@H](Cc1ccc(O)cc1)C(=O)N[C@@H](CC(N)=O)C(=O)N[C@@H](Cc1c[nH]c2ccccc12)C(=O)N[C@@H](CC(C)C)C(=O)N[C@H](C(=O)N[C@@H](CCCNC(=N)N)C(=O)N[C@@H](CCC(N)=O)C(=O)N[C@@H](CCCNC(=N)N)C(=O)N[C@@H](Cc1ccc(O)cc1)C(N)=O)[C@@H](C)O
B6 was tested, and the “EC50, HTRF cAMP Gi assay” value [1] was greater than 5000 nM, the “EC50, HTRF cAMP Gi assay” value [2] was 0.172 nM and the Ki [3] was 2.68 nM.
